The source of these data is the nanobody polyreactivity screen of Harvey et al. (2022).

This series can be described thus: yeast display, Sf9 membrane polyspecificity reagent, FACS + sequencing; frameworks hold sequencing errors. The gist of the method: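 In a synthetic yeast display library (Saccharomyces cerevisiae BJ5465), nanobody expression was induced with galactose for 36–48 hours. FACS gates were set low and high (top ~1%) using anti-HA fluorescence for expression and streptavidin fluorescence for binding of the Sf9 membrane reagent. Each polyreactivity label is drawn from the gate of origin.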
Take “QVQLVESGGGLVQAGGSLRLSCAASGNTFYHYVMGWYRQAPGKESELVAAISRSGGSTYYADSVKGRFTISRDNAKNTVYLQMNSLKPEDTAVYYCAARTSIGLLYDYWGQGTQVTVSS”: the “polyreactivity (PSR sort gate)” value is given as “high polyreactivity”.

Turning to “QVQLVESGGGLVQAGGSLRLSCAASGNTFYINTMGWYRQAPGKEREFVAAITWSGGPTYYADSVKGRFTISRDNAKNTVYLQMNSLKPEDTAVYYCAADSRGEDYYYWGQGTQVTVSS”, the “polyreactivity (PSR sort gate)” value is “high polyreactivity”.

For “QVQLVESGGGLVQAGGSLRLSCAASGNTFYKNTMGWYRQAPGKERELVAAISQRGTRTYYADSVKGRFTISRDNAKNSVYLQLYSLNPEDTAVYYCATDLSQVGFDYWGQGTQVTVSS”, the “polyreactivity (PSR sort gate)” value was “high polyreactivity”.

Regarding “QVQLVESGGGLVQAGGSLRLSCAASGNTFYRNAMGWYRQAPGKERELVAGISNGGSTNYEDSVKGRFTISRDNAKNSVYLQMNSLKPEDTAVYYFAKDEPKVSRAFDYWGQGTQVNVSS”, the “polyreactivity (PSR sort gate)” value is “low polyreactivity”.

As for “QVQLVESGGGLVQAGGSLRLSCAASGNTFYTYAMGWYRQAPGKERELVAAITSGGRTYADSVKGRFTISRDNAKNTVYLQMNSLKPEDTEVYYCAAEFPGFYYVYPGDYWGQGTQVTVSS”, the “polyreactivity (PSR sort gate)” value is on record as “low polyreactivity”.

As for “QVQLVESGGGLVQAGGSLRLSCAASGNTFYWYVMGWYRQAPGKERELVARITSSGGSTNYADSVKGRFTISRDNAKNTVYLQMNSLKPEDTAVYYCAADDIYLYGGGTDYYYWGQGTQVTVSS”, the “polyreactivity (PSR sort gate)” value was “low polyreactivity”.

As for “QVQLVESGGGLVQAGGSLRLSCAASGNTIIRYAMGWYRQAPGKERELVAAISYSGGRTYYADSVKGRFTISRDNAKNTVYLQMNSLKPEDTAVYYCNAASRYGGDYWGQGTQVTVSS”, the “polyreactivity (PSR sort gate)” value was “low polyreactivity”.

For “QVQLVESGGGLVQAGGSLRLSCAASGNTIRVYAMGWYRQAPGKERELVAAITWSGSRTYYADSVKGRFTISRDNAKNTVYLQMNSLKPEDTAVYYCAARFVRPAYNYWGQGTQVTVSS”, the “polyreactivity (PSR sort gate)” value is reported as “high polyreactivity”.

In the case of “QVQLVESGGGLVQAGGSLRLSCAASGNTISYYAMGWYRQAPGKERELVAAISANGGSTYYADSVKGRFTISRDNAKNTVYLQMNSLKPEDTAVYYCNRRFLSRNQNEYDYWGQGTQVTVSS”, the “polyreactivity (PSR sort gate)” value is reported as “high polyreactivity”.

“QVQLVESGGGLVQAGGSLRLSCAASGNTLAANAMGWYRQAPGKERELVAAITYSGGSTYYADSVKGRFTISRDNSKNTVYLQMNSLKPLDTAVYYCAAEGYYSNYHYWGQGTQVTVSW”: the “polyreactivity (PSR sort gate)” value is reported as “low polyreactivity”.

For the sequence “QVQLVESGGGLVQAGGSLRLSCAASGNTLDAYAMGWYRQAPGKERELVAAITSGGSTYYADSVKGRFTISRDNAKNTVYLQMNSLKPEDTAVYYCNADGHPSDPCYDYWGQGTQVTVSS”, the “polyreactivity (PSR sort gate)” value is recorded as “low polyreactivity”.

On to “QVQLVESGGGLVQAGGSLRLSCAASGNTLDAYAMGWYRQAPGKERELVAAITSGGSTYYADSVKGRFTISRDNAKNTVYLQMNSLKPEDTAVYYCNADGHPSDPGYDYWGQGTQVTVSS”, for which the “polyreactivity (PSR sort gate)” value is listed as “low polyreactivity”.

For “QVQLVESGGGLVQAGGSLRLSCAASGNTLDVNAMGWYRQAPWKERELVAAITSGGSTNYADSVKGRFTISRDNAKNTVYLQMNSLKPEDTAVYYCAKGSGVTYVNETLNTDYGYWGQGTQVTVSS”, the “polyreactivity (PSR sort gate)” value is given as “low polyreactivity”.

Consider “QVQLVESGGGLVQAGGSLRLSCAASGNTLIVNAMGWYRQAPGKERELVAAITRDGRTNYADSVKGRFTISRDNAKNTFYLQMNSLKPEDTAVYYCNALSADWFPEEDYWGQGTQVTVSS”, for which the “polyreactivity (PSR sort gate)” value is on record as “low polyreactivity”.

In the case of “QVQLVESGGGLVQAGGSLRLSCAASGNTLIVNAMGWYRQAPGKETELVAAITRDGRTNYADSVKGRFTISRDNAKNTVYLQMNSLKPEDTAVYYCAAEGVPDALDRDYWGQGTQVTVSS”, the “polyreactivity (PSR sort gate)” value is on record as “low polyreactivity”.

“QVQLVESGGGLVQAGGSLRLSCAASGNTLTPYTMGWYRQAPGKERELVAAINRSGGSTYYADSVKGRVTISRDNGKNTVYLQMNSLKPEDTAVYYCAAFGYYNFGYYYWGQGSQVTVSS”: the “polyreactivity (PSR sort gate)” value is listed as “high polyreactivity”.

As to “QVQLVESGGGLVQAGGSLRLSCAASGNTLTYNVMGWYRQGPGKERELVAAISGRGGRTYYADSVKGRFTISRDNAKNTVYLQMNSLKPEATAVYDCATRDRAGYYYWGQGTQVTVSS”, the “polyreactivity (PSR sort gate)” value was “high polyreactivity”.

Take “QVQLVESGGGLVQAGGSLRLSCAASGNTLWRNAMGWSRQAPGKERELVATISSVGTYYADSVKGRFTISRDNAKNTVYLQMNSLKPEDTAVYYCAARIWAFYSRRYYWGQGTQVTVSS”: the “polyreactivity (PSR sort gate)” value was “high polyreactivity”.

Regarding “QVQLVESGGGLVQAGGSLRLSCAASGNTLYRNALGWYRQAPGKERELVAAIRLSGGSTYYADSVKGRFTISRDNAKNTVYLQMNSLKPEDTAVYYCAVRIRYYTGFYSWGQGTQVTVSS”, the “polyreactivity (PSR sort gate)” value was “high polyreactivity”.

In the case of “QVQLVESGGGLVQAGGSLRLSCAASGNTSPFYAMGWYRQAPGKERELVAAISANGGSTTYADSVKGRFTISRDNAKNTVYLQMNSLKPEDTALYYCNALSLLSDGAASVDQVTFDYWGQGTQVTVSS”, the “polyreactivity (PSR sort gate)” value is “low polyreactivity”.

Consider “QVQLVESGGGLVQAGGSLRLSCAASGNTVFKNAMVWYRQAPGKERELVAAISKRGGSTYYADSVKGRFTISRDNAKNTVYIQMNSLIPEDTAVYYCAADTFGVYASTYDYWGQGTQVTVSS”, for which the “polyreactivity (PSR sort gate)” value is “high polyreactivity”.

On to “QVQLVESGGGLVQAGGSLRLSCAASGPIFDGYVMGWYRQAPGKERELVAAISKSGARTYYADSVKGRFTISRDNAKNTVYLQMNSLKPEHTAVYYCARFSGVDNAYDYWGQGTQVTVSS”, for which the “polyreactivity (PSR sort gate)” value is listed as “high polyreactivity”.

As for “QVQLVESGGGLVQAGGSLRLSCAASGPIFKRNDMGWYRQSHGKERELVAAISGSGGRTYYADSLKGRFTISRDNAKNTVYLQMNSLKPEDTAVYYCNAGGSYYARGMDYWGQGTQVTVSS”, the “polyreactivity (PSR sort gate)” value is on record as “high polyreactivity”.

As for “QVQLVESGGGLVQAGGSLRLSCAASGPIFRGYAMGWYRQAPGKERELVARITSGGRTYYADSVKGRFTISRDNAKNTVYLQMNSLKPEDTAVYYWATVGRGYDERHNYWGQGTQVTVSS”, the “polyreactivity (PSR sort gate)” value is “high polyreactivity”.

Regarding “QVQLVESGGGLVQAGGSLRLSCAASGPIFVHNAKGWYRQAPGTERELVAAISWRATRTYYADSVKGRFTISRDNAKNTVYLQMNSLKPEDTAVYYCAAVTPAYSTSTSSYDYWGQGTQVTVSS”, the “polyreactivity (PSR sort gate)” value is recorded as “high polyreactivity”.

For “QVQLVESGGGLVQAGGSLRLSCAASGPTFLYNAMGWYRQAPGKERELVAAISRSAVSTYYADSVKGRFTISRDNAKNTVYLQINSLKPDDTAVYYCSADYRGRYATYRSYASVLYDYWGQGTQVTVSW”, the “polyreactivity (PSR sort gate)” value is “low polyreactivity”.

“QVQLVESGGGLVQAGGSLRLSCAASGPTFPFNAMGWYRQAPGKERELVAAISWRDGRTYYADSVKGRFTISRDYAKNTVYLQMNSLKPEDTAVYYCNVVKRRSDWGMDYWGQGTQVTVSS”: the “polyreactivity (PSR sort gate)” value is “high polyreactivity”.

Turning to “QVQLVESGGGLVQAGGSLRLSCAASGPTFPVKSMGWYRQAPGKERELVAAISWRDGRTYYADSVKGRFTISRDNAKNTVYLQMNSLKPEDTAVYYCNVVKRRSDWGMDYWGQGTQVTVSS”, the “polyreactivity (PSR sort gate)” value was “high polyreactivity”.

Consider “QVQLVESGGGLVQAGGSLRLSCAASGPTFSQNVMGWYRQAPGKERELVAGISSGDITDYADSVKGRFTISRDNAKNTVYLQMNSPKPEDTAVYYCTYYGKSGGYRYTYYYWGQGTQVTVSS”, for which the “polyreactivity (PSR sort gate)” value is “high polyreactivity”.

Take “QVQLVESGGGLVQAGGSLRLSCAASGRFFRYNAMGWYRQAPGKERELVAAIRYSGTSTYYADSVKGRFTISRDNAKNTVYFQMNSLKPEDTAVYYCAAYKRYYYGYDYWGQGTQVTVSS”: the “polyreactivity (PSR sort gate)” value was “high polyreactivity”.

For “QVQLVESGGGLVQAGGSLRLSCAASGRIDAYYAMGWYRQAPGKERELVAGISQRGSRTYYADSVKGRFTISRDNAKNTVYLQMNSLKPEDTAVYYCAARDRRSVTMDYWGQGTQVTVSS”, the “polyreactivity (PSR sort gate)” value was “high polyreactivity”.

Turning to “QVQLVESGGGLVQAGGSLRLSCAASGRIFAAYAMGWYRQAPGKERELVAAISWSGANTYYADSVKGRFTISRDNAKNTVYLQMNSLKPEDTAVYYCATLSKSYGVRRYKSDYWGQGTQVTVSS”, the “polyreactivity (PSR sort gate)” value is “high polyreactivity”.

For the sequence “QVQLVESGGGLVQAGGSLRLSCAASGRIFADNAMGWYRQAPGKERELVATISRNGGRTSYADSVKGRFTISRDNAKNTVYLQMNSLNPEVTAVYYCAVRAPGSSEGYYWGQGSQVTVSS”, the “polyreactivity (PSR sort gate)” value was “low polyreactivity”.

On to “QVQLVESGGGLVQAGGSLRLSCAASGRIFAFYALGWYIQAPGKERELVAAISWSDDITYYADSVKGRFTISRDNAKNTVYSQMNSLKPEDTAVYYCAYRRRGYAFSSDYWGQGTQVTVSS”, for which the “polyreactivity (PSR sort gate)” value is given as “high polyreactivity”.

On to “QVQLVESGGGLVQAGGSLRLSCAASGRIFAGYAMGWYRQAPGKERELVAAISDGGTTNYADSVKGRFTISRDNAKNTVYLQMNSLKPEDTAVYYCAAKSRTYQSYYYWGQGTQVTVSS”, for which the “polyreactivity (PSR sort gate)” value was “low polyreactivity”.

As for “QVQLVESGGGLVQAGGSLRLSCAASGRIFAHNAMGWYRQAPGKERELVAAINSGGSTRYADSVKGRFTISRDNAKNTVYLQMNSLKPEDTAVYYCARGPKGYYFARYGYWGQGTQVTVSS”, the “polyreactivity (PSR sort gate)” value is “high polyreactivity”.

As to “QVQLVESGGGLVQAGGSLRLSCAASGRIFAHYAMGWYRQAPGKERELVADITDGGSTYYADSVKGRFTISRDNAKNTVYLQMNSLKPEDTAVYYVATRRGPWPSEYDSWGQGTQVTVSS”, the “polyreactivity (PSR sort gate)” value is listed as “low polyreactivity”.

“QVQLVESGGGLVQAGGSLRLSCAASGRIFAIYAMGWYRQAPGKERELVAGITYSAGSTYYADSVKGRFTISRDNAKNTVYLQMNSLKPEDTAVYYCAALEYNSHRYGYDYWGQGTQVTVSS”: the “polyreactivity (PSR sort gate)” value was “low polyreactivity”.

For the sequence “QVQLVESGGGLVQAGGSLRLSCAASGRIFAKNAMGWYRQAPGKERELVAAINHSGGSTYYADSVKGRFTISRDNAKNTVYLQMNSLKPEDTAVYYCAARGLTTRSPFYYWGQGTQVTVSS”, the “polyreactivity (PSR sort gate)” value was “high polyreactivity”.

In the case of “QVQLVESGGGLVQAGGSLRLSCAASGRIFAPKAMGWYRQAPGKERELVADINFSGDSTYYADSVKGRFTISRDNAKNTVYLQMNSLKPEDTAVYYCAADISLVSYYYWGQGTQVTVSS”, the “polyreactivity (PSR sort gate)” value was “low polyreactivity”.

As to “QVQLVESGGGLVQAGGSLRLSCAASGRIFAPYAKGRYRQAPGKERELVAAIRWRGGSTSYADSVKGRFTISRDNAKNTVYLQLNSLKPEDSAVYSCNADYGFSFYWYDYWGHGTQVTVSS”, the “polyreactivity (PSR sort gate)” value is given as “low polyreactivity”.
